Test results: paper PMC6386767, “Characterization of recombinant fructose-1,6-bisphosphatase gene mutations: evidence of inhibition/activation of FBPase protein by gene mutation” (Bioscience Reports, 2019)
Residue numbers refer to the chain shown, from its start. Numbers in names are those of the source.

How the values were obtained:
Assay type in all cases: binding
pig kidney FBPase K112A = target: T1, pig kidney FBPase K112A (Sus scrofa, UniProt P00636, K113A); assay: Differential scanning fluorimetry, K112A mutant; settings: no ligand
T1 construct: His6 (C); made in house; host or cells: Escherichia coli BL21 (DE3)
T1 sequence (P00636 1-338 K113A): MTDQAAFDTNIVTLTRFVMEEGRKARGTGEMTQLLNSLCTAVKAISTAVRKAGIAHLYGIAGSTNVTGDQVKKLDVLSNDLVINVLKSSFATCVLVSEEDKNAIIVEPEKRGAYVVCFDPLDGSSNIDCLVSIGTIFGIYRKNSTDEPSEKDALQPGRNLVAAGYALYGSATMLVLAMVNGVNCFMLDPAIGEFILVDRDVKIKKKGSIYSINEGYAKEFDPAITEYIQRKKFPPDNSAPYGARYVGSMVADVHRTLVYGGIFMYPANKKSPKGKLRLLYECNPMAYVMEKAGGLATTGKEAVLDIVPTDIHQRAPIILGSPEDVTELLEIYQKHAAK
Experimental: (§1) Differential scanning fluorimetry (DSF) assays were designed and implemented to run on WT and each mutant for the purpose of determining relative stabilities by melting point, and to detect structural changes in the enzymes upon ligand binding. Thermal shift assays were performed with a Light Cycler 96 System Real-Time PCR machine (Roche) using Sypro-Orange dye (Invitrogen) and thermal ramping (0.25°C per min between 20 and 85°C). […] Data were processed using the Boltzmann equation to generate sigmoidal denaturation curves, and average Tm/ΔTm values were calculated as previously described using GraphPad Prism software package.

pig kidney FBPase M248D = target: T2, pig kidney FBPase M248D (Sus scrofa, UniProt P00636, M249D); assay: Differential scanning fluorimetry, M248D mutant; settings: enzyme M248D 5 µM, no ligand
T2 construct: His6 (C); made in house; host or cells: Escherichia coli BL21 (DE3)
T2 sequence (P00636 1-338 M249D): T1 sequence (P00636 1-338 K113A) with A113K, M249D
Experimental: as §1

pig kidney FBPase Y113A = target: T3, pig kidney FBPase Y113A (Sus scrofa, UniProt P00636, Y114A); assay: Differential scanning fluorimetry, Y113A mutant; settings: no ligand
T3 construct: His6 (C); made in house; host or cells: Escherichia coli BL21 (DE3)
T3 sequence (P00636 1-338 Y114A): T1 sequence (P00636 1-338 K113A) with A113K, Y114A
Experimental: as §1

pig kidney FBPase Y164A = target: T4, pig kidney FBPase Y164A (Sus scrofa, UniProt P00636, Y165A); assay: Differential scanning fluorimetry, Y164A mutant; settings: enzyme Y164A 5 µM, no ligand
T4 construct: His6 (C); made in house; host or cells: Escherichia coli BL21 (DE3)
T4 sequence (P00636 1-338 Y165A): T1 sequence (P00636 1-338 K113A) with A113K, Y165A
Experimental: as §1

pig kidney FBPase L73A = target: T5, pig kidney FBPase L73A (Sus scrofa, UniProt P00636, L74A); assay: Differential scanning fluorimetry, L73A mutant; settings: enzyme L73A 5 µM, no ligand
T5 construct: His6 (C); made in house; host or cells: Escherichia coli BL21 (DE3)
T5 sequence (P00636 1-338 L74A): T1 sequence (P00636 1-338 K113A) with L74A, A113K
Experimental: as §1

pig kidney FBPase WT = target: T6, pig kidney FBPase WT (Sus scrofa, UniProt P00636); assay: Differential scanning fluorimetry, WT enzyme; settings: enzyme WT 5 µM, no ligand
T6 construct: His6 (C); made in house; host or cells: Escherichia coli BL21 (DE3)
T6 sequence (P00636 1-338): T1 sequence (P00636 1-338 K113A) with A113K
Experimental: as §1

pig kidney FBPase L56A = target: T7, pig kidney FBPase L56A (Sus scrofa, UniProt P00636, L57A); assay: Differential scanning fluorimetry, L56A mutant; settings: enzyme L56A 5 µM, no ligand
T7 construct: His6 (C); made in house; host or cells: Escherichia coli BL21 (DE3)
T7 sequence (P00636 1-338 L57A): T1 sequence (P00636 1-338 K113A) with L57A, A113K
Experimental: as §1

pig kidney FBPase M177A = target: T8, pig kidney FBPase M177A (Sus scrofa, UniProt P00636, M178A); assay: Differential scanning fluorimetry, M177A mutant; settings: enzyme M177A 5 µM, no ligand
T8 construct: His6 (C); made in house; host or cells: Escherichia coli BL21 (DE3)
T8 sequence (P00636 1-338 M178A): T1 sequence (P00636 1-338 K113A) with A113K, M178A
Experimental: as §1

B1: K112A: pig kidney FBPase mutant, lysine to alanine, AMP-binding site (protein, UniProt P00636 2-338, looked up, variant K112A)
Fructose-1,6-bisphosphatase 1: TDQAAFDTNIVTLTRFVMEEGRKARGTGEMTQLLNSLCTAVKAISTAVRKAGIAHLYGIAGSTNVTGDQVKKLDVLSNDLVINVLKSSFATCVLVSEEDKNAIIVEPEKRGAYVVCFDPLDGSSNIDCLVSIGTIFGIYRKNSTDEPSEKDALQPGRNLVAAGYALYGSATMLVLAMVNGVNCFMLDPAIGEFILVDRDVKIKKKGSIYSINEGYAKEFDPAITEYIQRKKFPPDNSAPYGARYVGSMVADVHRTLVYGGIFMYPANKKSPKGKLRLLYECNPMAYVMEKAGGLATTGKEAVLDIVPTDIHQRAPIILGSPEDVTELLEIYQKHAAK
Pig kidney FBPase K112A; enzyme K112A 5 µM
  melting point, No Ligand: 51.0 (± 2.50) °C
Pig kidney FBPase K112A; enzyme K112A
  decrease in melting temperature compared with WT: approximately 6 °

B2: M248D: pig kidney FBPase active site mutant Met^248 to aspartic acid (protein, UniProt P00636 2-338, looked up, variant M248D)
Fructose-1,6-bisphosphatase 1: B1 Fructose-1,6-bisphosphatase 1 with A112K, M248D
Pig kidney FBPase M248D
  melting point, No Ligand: 62.0 (± 1.25) °C

B3: Y113A: pig kidney FBPase mutant, tyrosine to alanine, AMP-binding site (protein, UniProt P00636 2-338, looked up, variant Y113A)
Fructose-1,6-bisphosphatase 1: B1 Fructose-1,6-bisphosphatase 1 with A112K, Y113A
Pig kidney FBPase Y113A; enzyme Y113A 5 µM
  melting point, No Ligand: 50.0 (± 2.25) °C
Pig kidney FBPase Y113A; enzyme Y113A
  decrease in melting temperature compared with WT: approximately 6 °

B4: Y164A: pig kidney FBPase mutant, tyrosine to alanine, interfacial (protein, UniProt P00636 2-338, looked up, variant Y164A)
Fructose-1,6-bisphosphatase 1: B1 Fructose-1,6-bisphosphatase 1 with A112K, Y164A
Pig kidney FBPase Y164A
  melting point, No Ligand: 55.4 (± 2.25) °C

B5: L73A: pig kidney FBPase mutant Leu^73 to alanine, near PFE tetramer interface site (protein, UniProt P00636 2-338, looked up, variant L73A)
Fructose-1,6-bisphosphatase 1: B1 Fructose-1,6-bisphosphatase 1 with L73A, A112K
Pig kidney FBPase L73A
  melting point, No Ligand: 55.8 (± 2.50) °C

B6: WT: recombinant wild-type pig kidney FBPase enzyme (protein, UniProt P00636 2-338, looked up)
Fructose-1,6-bisphosphatase 1: B1 Fructose-1,6-bisphosphatase 1 with A112K
Pig kidney FBPase WT
  melting point, No Ligand: 56.0 (± 2.75) °C

B7: L56A: pig kidney FBPase mutant Leu^56 to alanine, near PFE tetramer interface site (protein, UniProt P00636 2-338, looked up, variant L56A)
Fructose-1,6-bisphosphatase 1: B1 Fructose-1,6-bisphosphatase 1 with L56A, A112K
Pig kidney FBPase L56A
  melting point, No Ligand: 56.0 (± 3.00) °C

B8: M177A: pig kidney FBPase mutant, methionine to alanine, interfacial (protein, UniProt P00636 2-338, looked up, variant M177A)
Fructose-1,6-bisphosphatase 1: B1 Fructose-1,6-bisphosphatase 1 with A112K, M177A
Pig kidney FBPase M177A
  melting point, No Ligand: 54.2 (± 1.75) °C
